The source of these data is publication PMC5943350.

By stoichiometry N is commonly meant the number of molecules, sites or subunits per partner or assembly.

Experiment [1] addresses TNFRII-Trimer fusion protein (homotrimeric soluble human TNF receptor II fused to the Trimer-Tag, the C-propeptide of human α1(III) collagen) (human) (UniProt P20333). Nature of the experiment: SEC + other: non-reducing SDS-PAGE; purified TNFRII-Trimer on 10% SDS-PAGE under non-reducing or reducing conditions (Coomassie; Western blot under non-reducing conditions too) and SEC-HPLC (Sepax Zenix-C SEC-300, OD280), TNFRII-Fc as dimeric control. (In general: A western blot detects proteins with antibodies after separation by electrophoresis.)

The target of experiment [2] is human TNF-α (human) (UniProt P01375).
Chain of UniProt P01375 (P01375 77-233): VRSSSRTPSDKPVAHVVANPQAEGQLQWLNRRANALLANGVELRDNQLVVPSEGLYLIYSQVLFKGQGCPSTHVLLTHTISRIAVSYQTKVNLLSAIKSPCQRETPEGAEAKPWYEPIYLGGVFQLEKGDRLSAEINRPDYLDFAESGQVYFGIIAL

In the case of “TNFRII-Trimer fusion protein (homotrimeric soluble human TNF receptor II fused to the Trimer-Tag, the C-propeptide of human α1(III) collagen) (from UniProt P20333 23-256)”, in experiment [1], the stoichiometry N is 3.
On to “TNFRII-Fc (dimeric soluble human TNFRII receptor-Fc fusion) (from UniProt P20333 23-257)”, for which, in experiment [2], the IC50 of neutralisation of TNF-α (2.5 ng/mL)-induced cytotoxicity in L929 cells, MTT assay, molar basis stood at 98.6 pM and the IC50 of neutralisation of TNF-α (2.5 ng/mL)-induced cytotoxicity in L929 cells, MTT assay, weight basis stood at 10.1 ng/mL.
